Assay results from patent US20170137467A1 (CHROMOTEK, published 2017).

T1: BC2T H9G
T1 construct: positional scanning library member
T1 peptide: Ac-PDRKAAVSGWQQ-NH2

T2: BC2T H9M
T2 construct: positional scanning library member
T2 peptide: Ac-PDRKAAVSMWQQ-NH2

T3: BC2T Q11W
T3 construct: positional scanning library member
T3 peptide: Ac-PDRKAAVSHWWQ-NH2

T4: BC2T H9K
T4 construct: positional scanning library member
T4 peptide: Ac-PDRKAAVSKWQQ-NH2

T5: BC2T Q11R
T5 construct: positional scanning library member
T5 peptide: Ac-PDRKAAVSHWRQ-NH2

T6: BC2T W10V
T6 construct: positional scanning library member
T6 peptide: Ac-PDRKAAVSHVQQ-NH2

T7: BC2T S8A
T7 construct: positional scanning library member
T7 peptide: Ac-PDRKAAVAHWQQ-NH2

T8: BC2T S8M
T8 construct: positional scanning library member
T8 peptide: Ac-PDRKAAVMHWQQ-NH2

T9: BC2T H9R
T9 construct: positional scanning library member
T9 peptide: Ac-PDRKAAVSRWQQ-NH2

T10: BC2T S8Y
T10 construct: positional scanning library member
T10 peptide: Ac-PDRKAAVYHWQQ-NH2

T11: BC2T Q12G
T11 construct: positional scanning library member
T11 peptide: Ac-PDRKAAVSHWQG-NH2

T12: BC2T W10H
T12 construct: positional scanning library member
T12 peptide: Ac-PDRKAAVSHHQQ-NH2

T13: BC2T W10K
T13 construct: positional scanning library member
T13 peptide: Ac-PDRKAAVSHKQQ-NH2

T14: BC2T W10S
T14 construct: positional scanning library member
T14 peptide: Ac-PDRKAAVSHSQQ-NH2

T15: BC2T H9Y
T15 construct: positional scanning library member
T15 peptide: Ac-PDRKAAVSYWQQ-NH2

T16: BC2T Q11V
T16 construct: positional scanning library member
T16 peptide: Ac-PDRKAAVSHWVQ-NH2

T17: BC2T S8G
T17 construct: positional scanning library member
T17 peptide: Ac-PDRKAAVGHWQQ-NH2

T18: BC2T Q12Y
T18 construct: positional scanning library member
T18 peptide: Ac-PDRKAAVSHWQY-NH2


What was measured:
Test in all cases: positional peptide library pulldown on immobilised Nb, LC-MS of supernatant; signal ratio to control GFP-Nb (1 = not captured, near 0 = captured)
BC2T H9G = target: T1, BC2T H9G
Text: (§1) In total, 12 different BC2T libraries displaying all 20 proteinogenic amino acids in one single position of the peptide were used in immunoprecipitation experiments. […] The direct comparison with the GFP-Nb made it possible to determine the quantitative degree of peptide capture without the need of labeled standards. […] The more peptide was captured the more the value approximates 0. It was not possible to discriminate between isoleucine (I) and leucine (L) peptide versions since these peptides are isobaric.
(§2) To investigate the binding specificity of the BC2T and derived mutants peptide libraries for each amino acid position of the sequence […] (SEQ ID NO:4) were synthesized with acetyl and amide groups located at the N-termini or C-termini respectively (Intavis). […] Incubations were performed in 300 μl PBS/0.01% CHAPS for 1 h on a HulaMixer (Life Technologies). Subsequent to a centrifugation step 10 μl supernatant were analyzed in a LC-MS procedure. Peptides were separated using an UltiMate3000 RSLCnano System (Thermo Scientific), composed of a C18 PepMap100μ-Precolumn (300 μm×5 mm; particle size: 5 μm; pore size: 100 Å—Thermo Scientific) and a C18 analytical column (Acclaim Rapid Separation LC (RSLC) Column: 150 mm×5 mm; particle size: 2.2 μm; pore size: 100 Å—Thermo Scientific). A step gradient was applied starting at 8% and ending after 20 min at 30% eluent B (80% acetonitrile, 20% H₂O, 0.1% formic acid).

BC2T H9M = target: T2, BC2T H9M
Text: as §1, §2

BC2T Q11W = target: T3, BC2T Q11W
Text: as §1, §2

BC2T H9K = target: T4, BC2T H9K
Text: as §1, §2

BC2T Q11R = target: T5, BC2T Q11R
Text: as §1, §2

BC2T W10V = target: T6, BC2T W10V
Text: as §1, §2

BC2T S8A = target: T7, BC2T S8A
Text: as §1, §2

BC2T H9(I/L1) = target: T19, BC2T H9(I/L1) (N-terminal acetyl; C-terminal amide)
T19 construct: positional scanning library member; I or L not resolved
Text: as §1, §2

BC2T Q12(I/L2) = target: T20, BC2T Q12(I/L2) (N-terminal acetyl; C-terminal amide)
T20 construct: positional scanning library member; I or L not resolved
Text: as §1, §2

BC2T S8M = target: T8, BC2T S8M
Text: as §1, §2

BC2T H9R = target: T9, BC2T H9R
Text: as §1, §2

BC2T S8Y = target: T10, BC2T S8Y
Text: as §1, §2

BC2T Q12G = target: T11, BC2T Q12G
Text: as §1, §2

BC2T W10H = target: T12, BC2T W10H
Text: as §1, §2

BC2T W10K = target: T13, BC2T W10K
Text: as §1, §2

BC2T W10S = target: T14, BC2T W10S
Text: as §1, §2

BC2T H9Y = target: T15, BC2T H9Y
Text: as §1, §2

BC2T Q11V = target: T16, BC2T Q11V
Text: as §1, §2

BC2T S8G = target: T17, BC2T S8G
Text: as §1, §2

BC2T W10(I/L1) = target: T21, BC2T W10(I/L1) (N-terminal acetyl; C-terminal amide)
T21 construct: positional scanning library member; I or L not resolved
Text: as §1, §2

BC2T Q12Y = target: T18, BC2T Q12Y
Text: as §1, §2

Row | Binder | ratio (BC2T H9G) | ratio (BC2T H9M) | ratio (BC2T Q11W) | ratio (BC2T H9K) | ratio (BC2T Q11R) | ratio (BC2T W10V) | ratio (BC2T S8A) | ratio (BC2T H9(I/L1)) | ratio (BC2T Q12(I/L2)) | ratio (BC2T S8M) | ratio (BC2T H9R) | ratio (BC2T S8Y) | ratio (BC2T Q12G) | ratio (BC2T W10H) | ratio (BC2T W10K) | ratio (BC2T W10S) | ratio (BC2T H9Y) | ratio (BC2T Q11V) | ratio (BC2T S8G) | ratio (BC2T W10(I/L1)) | other results
1 | BC2 nanobody (VHH, immobilised on beads in this assay; also called BC2-Nb; BC2 nanotrap (immobilised)) VHH: QVQLVESGGGLVQPGGSLTLSCTASGFTLDHYDIGWFRQAPGKEREGVSCINNSDDDTYYADSVKGRFTIFMDNAKDTVYLQMNSLKPEDTAIYYCAEARGCKRGRYEYDFWGQGTQVTVSS | 0.4 | 0.1 | 0 | 0.2 | 0 | 1 | 0 | 0.3 | 0.1 | 0.6 | 0.1 | 0.6 | 0.2 | 1 | 1 | 1.1 | 0.1 | 0.1 | 0.5 | 1 | ratio (BC2T Q12Y): 0.1
2 | BC2-NbR106S (VHH, headlock mutant of BC2-Nb; immobilised on beads in this assay) VHH: QVQLVESGGGLVQPGGSLTLSCTASGFTLDHYDIGWFRQAPGKEREGVSCINNSDDDTYYADSVKGRFTIFMDNAKDTVYLQMNSLKPEDTAIYYCAEARGCKRGSYEYDFWGQGTQVTVSS | 0.8 | 0.3 | 0.1 | 0.3 | 0.1 | 1 | 0.1 | 0.5 | 0.2 | 1 | 0.2 | 0.9 | 0.4 | 1.1 | 1.1 | 1.1 | 0.2 | 0.2 | 0.9 | 1.1 | ratio (BC2T Q12Y): 0.3
